Results: the supplement of paper PMC6757056
± gives the standard deviation of the averaged measurements.

B1: library; a variant is named by its letters at N, in order (parent)
chain: GCUGUCACCGGUGCUUGGUACGUUAUAUUCAGCCGGUCUGAUGAGUCUNNNNNNAGACGAAACAGC

How the values were obtained:
(6R,S)-folinic acid [1] = variants of: B1; experiment: FACS-Seq fitted mean relative fluorescence mCherry/BFP without ligand (log10 relative fluorescence); HEK293T overexpressing SLC46A1; higher = higher reporter protein expression; conditions: without (6R,S)-folinic acid; ligand present: no
How it was run: (§1)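 Fluorescence figures are normalized fitted normal means of sequenced bin counts. Enriched, lentivirally transduced HEK293T libraries with a ribozyme-switch mCherry reporter and EF1α-BFP were held 48 h with or without ligand, then sorted into 6 mCherry/BFP bins. PCR-amplified, barcoded genomic DNA from each bin was sequenced on MiSeq. Means of log10(mCherry/BFP) were scaled to five spiked-in control ribozymes.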

(6R,S)-folinic acid [2] = variants of: B1; experiment: normalized RNA/DNA level without ligand (relative to sTRSVctl = 100) (log10 (% of sTRSVctl)); HEK293T overexpressing SLC46A1; higher = less ribozyme self-cleavage, higher mRNA level; conditions: without (6R,S)-folinic acid; ligand present: no
Experimental: (§2)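 Hammerhead (sTRSV) ribozyme switch libraries with a ligand aptamer grafted on stem I and a randomized N4-6 loop II, cloned into the 3' UTR of mCherry and transiently transfected into HEK293T cells; RNA-Seq 72 h post transfection with ligand added 1 h before transfection; RNA read count / plasmid DNA read count normalized to the non-cleaving sTRSVctl (x100), log10; sequences with >100 DNA reads. FACS-Seq: lentiviral library sorted into 6 bins after 48 h ligand, log-normal fit mean of mCherry/BFP scaled to controls. Printed sequences are partial switch sequences.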

(6R,S)-folinic acid [3] = variants of: B1; experiment: FACS-Seq fitted mean relative fluorescence mCherry/BFP with ligand (log10 relative fluorescence); HEK293T overexpressing SLC46A1; ligand concentration (+) FACS-Seq: 6 mM; higher = higher reporter protein expression; conditions: with (6R,S)-folinic acid; ligand present: yes
How it was run: as §1

(6R,S)-folinic acid [4] = variants of: B1; experiment: normalized RNA/DNA level with ligand (relative to sTRSVctl = 100) (log10 (% of sTRSVctl)); HEK293T overexpressing SLC46A1; ligand concentration (+) RNA-Seq: 6 mM; higher = less ribozyme self-cleavage, higher mRNA level; conditions: with (6R,S)-folinic acid; ligand present: yes
Experimental: as §2

GCUGUCACCGGUGCUUGGUACGUUAUAUUCAGCCGGUCUGAUGAGUCUUAGUGGAGACGAAACAGC [UAGUGG]
FACS-Seq fitted mean (log10) ((6R,S)-folinic acid [1]): -0.0676 ± 0.055 | normalized RNA/DNA level without ligand (log10) ((6R,S)-folinic acid [2]): 1.56 ± 0.021 | FACS-Seq fitted mean (log10) ((6R,S)-folinic acid [3]): 0.623 ± 0.023 | normalized RNA/DNA level with ligand (log10) ((6R,S)-folinic acid [4]): 1.89 ± 0.046

GCUGUCACCGGUGCUUGGUACGUUAUAUUCAGCCGGUCUGAUGAGUCUUAGUGCAGACGAAACAGC [UAGUGC]
FACS-Seq fitted mean (log10) ((6R,S)-folinic acid [1]): 0.371 ± 0.0073 | normalized RNA/DNA level without ligand (log10) ((6R,S)-folinic acid [2]): 1.949 ± 0.011 | FACS-Seq fitted mean (log10) ((6R,S)-folinic acid [3]): 0.493 ± 0.034 | normalized RNA/DNA level with ligand (log10) ((6R,S)-folinic acid [4]): 2 ± 0.051

GCUGUCACCGGUGCUUGGUACGUUAUAUUCAGCCGGUCUGAUGAGUCUUAGUAGAGACGAAACAGC [UAGUAG]
FACS-Seq fitted mean (log10) ((6R,S)-folinic acid [1]): 0.108 ± 0.076 | normalized RNA/DNA level without ligand (log10) ((6R,S)-folinic acid [2]): 1.68 ± 0.011 | FACS-Seq fitted mean (log10) ((6R,S)-folinic acid [3]): 0.525 ± 0.14 | normalized RNA/DNA level with ligand (log10) ((6R,S)-folinic acid [4]): 1.93 ± 0.036

GCUGUCACCGGUGCUUGGUACGUUAUAUUCAGCCGGUCUGAUGAGUCUUAGUAAAGACGAAACAGC [UAGUAA]
FACS-Seq fitted mean (log10) ((6R,S)-folinic acid [1]): 0.0937 ± 0.063 | normalized RNA/DNA level without ligand (log10) ((6R,S)-folinic acid [2]): 1.937 ± 0.009 | FACS-Seq fitted mean (log10) ((6R,S)-folinic acid [3]): 0.531 ± 0.11 | normalized RNA/DNA level with ligand (log10) ((6R,S)-folinic acid [4]): 1.995 ± 0.016

GCUGUCACCGGUGCUUGGUACGUUAUAUUCAGCCGGUCUGAUGAGUCUUAGUAUAGACGAAACAGC [UAGUAU]
FACS-Seq fitted mean (log10) ((6R,S)-folinic acid [1]): 0.347 ± 0.059 | normalized RNA/DNA level without ligand (log10) ((6R,S)-folinic acid [2]): 1.931 ± 0.0038 | FACS-Seq fitted mean (log10) ((6R,S)-folinic acid [3]): 0.553 ± 0.11 | normalized RNA/DNA level with ligand (log10) ((6R,S)-folinic acid [4]): 2.006 ± 0.018

GCUGUCACCGGUGCUUGGUACGUUAUAUUCAGCCGGUCUGAUGAGUCUAAGUAGAGACGAAACAGC [AAGUAG]
FACS-Seq fitted mean (log10) ((6R,S)-folinic acid [1]): 0.445 ± 0.099 | normalized RNA/DNA level without ligand (log10) ((6R,S)-folinic acid [2]): 1.89 ± 0.021 | FACS-Seq fitted mean (log10) ((6R,S)-folinic acid [3]): 0.443 ± 0.18 | normalized RNA/DNA level with ligand (log10) ((6R,S)-folinic acid [4]): 1.987 ± 0.018

GCUGUCACCGGUGCUUGGUACGUUAUAUUCAGCCGGUCUGAUGAGUCUAAGUAAAGACGAAACAGC [AAGUAA]
FACS-Seq fitted mean (log10) ((6R,S)-folinic acid [1]): 0.225 ± 0.044 | normalized RNA/DNA level without ligand (log10) ((6R,S)-folinic acid [2]): 1.94 ± 0.021 | FACS-Seq fitted mean (log10) ((6R,S)-folinic acid [3]): 0.18 ± 0.26 | normalized RNA/DNA level with ligand (log10) ((6R,S)-folinic acid [4]): 2 ± 0.043

GCUGUCACCGGUGCUUGGUACGUUAUAUUCAGCCGGUCUGAUGAGUCUCAGUCGAGACGAAACAGC [CAGUCG]
FACS-Seq fitted mean (log10) ((6R,S)-folinic acid [1]): 0.4924 ± 0.0036 | normalized RNA/DNA level without ligand (log10) ((6R,S)-folinic acid [2]): 2.022 ± 0.01 | FACS-Seq fitted mean (log10) ((6R,S)-folinic acid [3]): 0.422 ± 0.19 | normalized RNA/DNA level with ligand (log10) ((6R,S)-folinic acid [4]): 2.037 ± 0.018

GCUGUCACCGGUGCUUGGUACGUUAUAUUCAGCCGGUCUGAUGAGUCUGAGUCAAGACGAAACAGC [GAGUCA]
FACS-Seq fitted mean (log10) ((6R,S)-folinic acid [1]): -0.101 ± 0.0028 | normalized RNA/DNA level without ligand (log10) ((6R,S)-folinic acid [2]): 1.998 ± 0.011 | FACS-Seq fitted mean (log10) ((6R,S)-folinic acid [3]): -0.24 ± 0.16 | normalized RNA/DNA level with ligand (log10) ((6R,S)-folinic acid [4]): 2.01 ± 0.0086

GCUGUCACCGGUGCUUGGUACGUUAUAUUCAGCCGGUCUGAUGAGUCUGAGUCCAGACGAAACAGC [GAGUCC]
FACS-Seq fitted mean (log10) ((6R,S)-folinic acid [1]): 0.0836 ± 0.051 | normalized RNA/DNA level without ligand (log10) ((6R,S)-folinic acid [2]): 2.04 ± 0.027 | FACS-Seq fitted mean (log10) ((6R,S)-folinic acid [3]): 0.569 ± 0.064 | normalized RNA/DNA level with ligand (log10) ((6R,S)-folinic acid [4]): 2.04 ± 0.03

GCUGUCACCGGUGCUUGGUACGUUAUAUUCAGCCGGUCUGAUGAGUCUAAGUCGAGACGAAACAGC [AAGUCG]
FACS-Seq fitted mean (log10) ((6R,S)-folinic acid [1]): -0.00669 ± 0.0044 | normalized RNA/DNA level without ligand (log10) ((6R,S)-folinic acid [2]): 1.978 ± 0.0045 | FACS-Seq fitted mean (log10) ((6R,S)-folinic acid [3]): 0.183 ± 0.19 | normalized RNA/DNA level with ligand (log10) ((6R,S)-folinic acid [4]): 2.0217 ± 0.00076

GCUGUCACCGGUGCUUGGUACGUUAUAUUCAGCCGGUCUGAUGAGUCUGAGUGGAGACGAAACAGC [GAGUGG]
FACS-Seq fitted mean (log10) ((6R,S)-folinic acid [1]): 0.427 ± 0.07 | normalized RNA/DNA level without ligand (log10) ((6R,S)-folinic acid [2]): 1.914 ± 0.0062 | FACS-Seq fitted mean (log10) ((6R,S)-folinic acid [3]): 0.493 ± 0.18 | normalized RNA/DNA level with ligand (log10) ((6R,S)-folinic acid [4]): 2.01 ± 0.046

GCUGUCACCGGUGCUUGGUACGUUAUAUUCAGCCGGUCUGAUGAGUCUGAGUGAAGACGAAACAGC [GAGUGA]
FACS-Seq fitted mean (log10) ((6R,S)-folinic acid [1]): 0.213 ± 0.11 | normalized RNA/DNA level without ligand (log10) ((6R,S)-folinic acid [2]): 1.96 ± 0.023 | FACS-Seq fitted mean (log10) ((6R,S)-folinic acid [3]): 0.443 ± 0.15 | normalized RNA/DNA level with ligand (log10) ((6R,S)-folinic acid [4]): 2 ± 0.043

GCUGUCACCGGUGCUUGGUACGUUAUAUUCAGCCGGUCUGAUGAGUCUGAGUGUAGACGAAACAGC [GAGUGU]
FACS-Seq fitted mean (log10) ((6R,S)-folinic acid [1]): 0.00433 ± 0.11 | normalized RNA/DNA level without ligand (log10) ((6R,S)-folinic acid [2]): 1.97 ± 0.01 | FACS-Seq fitted mean (log10) ((6R,S)-folinic acid [3]): 0.322 ± 0.027 | normalized RNA/DNA level with ligand (log10) ((6R,S)-folinic acid [4]): 2.04 ± 0.025

GCUGUCACCGGUGCUUGGUACGUUAUAUUCAGCCGGUCUGAUGAGUCUGAGUGCAGACGAAACAGC [GAGUGC]
FACS-Seq fitted mean (log10) ((6R,S)-folinic acid [1]): 0.283 ± 0.14 | normalized RNA/DNA level without ligand (log10) ((6R,S)-folinic acid [2]): 1.944 ± 0.0043 | FACS-Seq fitted mean (log10) ((6R,S)-folinic acid [3]): 0.338 ± 0.15 | normalized RNA/DNA level with ligand (log10) ((6R,S)-folinic acid [4]): 2.03 ± 0.039

GCUGUCACCGGUGCUUGGUACGUUAUAUUCAGCCGGUCUGAUGAGUCUGAGUAGAGACGAAACAGC [GAGUAG]
FACS-Seq fitted mean (log10) ((6R,S)-folinic acid [1]): 0.282 ± 0.0024 | normalized RNA/DNA level without ligand (log10) ((6R,S)-folinic acid [2]): 1.936 ± 0.017 | FACS-Seq fitted mean (log10) ((6R,S)-folinic acid [3]): 0.0667 ± 0.095 | normalized RNA/DNA level with ligand (log10) ((6R,S)-folinic acid [4]): 1.99 ± 0.034

GCUGUCACCGGUGCUUGGUACGUUAUAUUCAGCCGGUCUGAUGAGUCUGAGUACAGACGAAACAGC [GAGUAC]
FACS-Seq fitted mean (log10) ((6R,S)-folinic acid [1]): 0.375 ± 0.091 | normalized RNA/DNA level without ligand (log10) ((6R,S)-folinic acid [2]): 1.952 ± 0.012 | FACS-Seq fitted mean (log10) ((6R,S)-folinic acid [3]): 0.311 ± 0.16 | normalized RNA/DNA level with ligand (log10) ((6R,S)-folinic acid [4]): 2 ± 0.033

GCUGUCACCGGUGCUUGGUACGUUAUAUUCAGCCGGUCUGAUGAGUCUGAGUAAAGACGAAACAGC [GAGUAA]
FACS-Seq fitted mean (log10) ((6R,S)-folinic acid [1]): 0.434 ± 0.18 | normalized RNA/DNA level without ligand (log10) ((6R,S)-folinic acid [2]): 1.9346 ± 0.0017 | FACS-Seq fitted mean (log10) ((6R,S)-folinic acid [3]): 0.44 ± 0.3 | normalized RNA/DNA level with ligand (log10) ((6R,S)-folinic acid [4]): 1.99 ± 0.029

GCUGUCACCGGUGCUUGGUACGUUAUAUUCAGCCGGUCUGAUGAGUCUCAGUAAAGACGAAACAGC [CAGUAA]
FACS-Seq fitted mean (log10) ((6R,S)-folinic acid [1]): 0.289 ± 0.13 | normalized RNA/DNA level without ligand (log10) ((6R,S)-folinic acid [2]): 1.955 ± 0.0021 | FACS-Seq fitted mean (log10) ((6R,S)-folinic acid [3]): 0.23 ± 0.14 | normalized RNA/DNA level with ligand (log10) ((6R,S)-folinic acid [4]): 1.99 ± 0.023

GCUGUCACCGGUGCUUGGUACGUUAUAUUCAGCCGGUCUGAUGAGUCUAAGUGAAGACGAAACAGC [AAGUGA]
FACS-Seq fitted mean (log10) ((6R,S)-folinic acid [1]): 0.288 ± 0.021 | normalized RNA/DNA level without ligand (log10) ((6R,S)-folinic acid [2]): 1.952 ± 0.003 | FACS-Seq fitted mean (log10) ((6R,S)-folinic acid [3]): 0.42 ± 0.11 | normalized RNA/DNA level with ligand (log10) ((6R,S)-folinic acid [4]): 2.03 ± 0.021

GCUGUCACCGGUGCUUGGUACGUUAUAUUCAGCCGGUCUGAUGAGUCUAAGUGUAGACGAAACAGC [AAGUGU]
FACS-Seq fitted mean (log10) ((6R,S)-folinic acid [1]): 0.173 ± 0.16 | normalized RNA/DNA level without ligand (log10) ((6R,S)-folinic acid [2]): 1.94 ± 0.015 | FACS-Seq fitted mean (log10) ((6R,S)-folinic acid [3]): 0.597 ± 0.37 | normalized RNA/DNA level with ligand (log10) ((6R,S)-folinic acid [4]): 2.01 ± 0.029
